Reference: patent US9610323B2, “Model systems and treatment regimes for treatment of neurological disease” (NoNO Inc., priority 2009, dated 2017)
Read-outs that look alike come from different tables or passages of the source. Square brackets hold non-standard residues; d marks the D form. Ends that are not written are not given here.

What was measured:
[1] = target: binding of NMDAR 2B to PSD95 (Homo sapiens, UniProt P78352); settings: reported by Bach; cited from earlier work
[2] = high dose groups, primates
[3] = high dose groups, rats
[4] = Protocol: For use such a composition is thawed and diluted into a larger volume of normal saline for infusion into a blood vessel. Another composition can be made by lyophilizing the chimeric agent Tat-NR2B9c at a concentration of 1-50 mg/ml in normal saline in the presence or absence of excipients. Such excipients can include those to increase stability or inhibit bacterial, viral or other pathogen growth that could degrade the drug. […] The lyophilized composition can be reconstituted in normal saline.
[5] = tested on: permanent pial vessel occlusion (P3VO) stroke; test: Rat model of stroke, permanent pial vessel occlusion of 3 terminal branches of the Middle Cerebral Artery (P3VO); format: in vivo, Sprague Dawley rats; settings: 7.6 mg/kg i.v. after vessel occlusion, 5 min infusion
Protocol: Different infusion times were also compared for efficacy in a rat model of stroke in which adult Sprague Dawley rats (10-12 weeks old) (males˜300 g, females˜250 g) were fasted for 12-18 hours before being subjected to permanent pial vessel occlusion of 3 terminal branches of the Middle Cerebral Artery over the Whisker Barrel Cortex (P3VO). The protocol for analysis of this rat model has been described in WO/2008/008348. Tat-NR2B9c was administered at 7.6 mg/kg i.v. after vessel occlusion in comparison with vehicle. Two periods of infusion were compared, 5 min and 1 hour.

[6] = for subjects with histamine levels greater than 10 nmol/L: 3.75 mg/kg dose group; for maximum histamine level / average histamine level: 3.75 mg/kg; for average histamine level: subjects with levels greater than 10 nmol/L
Protocol: We carried out a Safety, Tolerability and Pharmacokinetic Study of Tat-NR2B9c in humans. Subjects were either normal, healthy, non-smoking males or post-menopausal or surgically sterile female subjects with a minimum age of 18 years. The subjects were either administered Tat-NR2B9c, Lot #: 124-134-001B, or were given placebo (Phosphate Buffered Saline), Lot #: 124-134-001A, administered as an intravenous infusion (10±1 minutes). Four subjects were dosed in each of Cohorts 1 to 3, and 10 subjects were dosed in each of Cohorts 4 to 8.
During the study period, 11 blood samples were collected for pharmacokinetic analysis from each subject at the following timepoints: 0.00 (pre-dose), 0.08 (5 minutes), 0.17 to 0.25 (10 to 15 minutes, precisely at the end of each individual drug infusion), 0.33 (20 minutes), 0.50, 0.75, 1.00, 2.00, 6.00, 12.00, and 24.00 hours post-dose. In addition, 8 blood samples were collected for histamine analysis from each subject at the following timepoints: 0.00 (pre-dose), and at 0.08 (5 minutes), 0.17 (10 minutes), 0.25, 0.50, 1.00, 2.00, and 24.00 hours post-dose.
The safety assessment was performed on all subjects who received at least 1 dose during the course of the study. The incidents of all adverse events (AEs) were tabulated by treatment and subject number. Absolute values for vital signs, electrocardiogram (ECG) parameters, laboratory parameters and physical examinations were also documented and values outside the normal range were flagged. Shifts from baseline values were tabulated. AEs were documented using investigator and Medical Dictionary for Regulatory Activities (MedDRA) terms.

embolic stroke = test: Primate model of ischemic stroke (twenty 100-micron polystyrene spheres into an intracerebral vessel; MRI brain analysis); format: in vivo, macaques; settings: 2.6 mg/kg one hour after spheres
Protocol: The following example was performed on ten macaques divided into five test subjects and five controls. Each animal was put through the protocol twice with test animals in the first round serving as controls in the second round and vice versa.
Twenty 100-micron polystyrene spheres were delivered into an intracerebral vessel of each animal to induce embolic stroke. One hour after introducing the sphere, the animals were treated with Tat-NR2B9c (2.6 mg/kg) or vehicle control. The animals were then subject to MRI brain analysis and neurological examination at 4 hr, 24 hr and 14 days after introduction of the spheres.
After 14-28 days, the procedure was repeated with test animals serving as controls and vice versa.

[7] = high dose groups, dogs
[8] = 50 mg/kg
Protocol: Tat-NR2B9c was administered to rats at 50 mg/kg and infusion times of 3 min or 60 min.

cerebral ischemia = settings: reported in WO 2008/014917; cited from earlier work
[9] = cortex compared with whole brain

Chain of binding of NMDAR 2B to PSD95 (P78352 61-249 limits assumed): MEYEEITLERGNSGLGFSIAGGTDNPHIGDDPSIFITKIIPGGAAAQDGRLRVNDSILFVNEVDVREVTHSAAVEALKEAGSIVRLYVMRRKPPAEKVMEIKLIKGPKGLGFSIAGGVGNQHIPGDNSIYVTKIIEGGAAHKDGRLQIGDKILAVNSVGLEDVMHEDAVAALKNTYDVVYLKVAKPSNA

Question: Which “inhibiting binding of NMDAR 2B to PSD95” value [1] does the source give for “IESDV (synthetic pentamer peptide from the C-terminus of NMDAR 2B) [pentamer peptide from the C-terminus of NMDAR 2B, reported by Bach]” here?
Answer: effective

Question: With YGRKKRRQRRRKLSSIESDV [Tat-NR2B9c] as the substance, how does the histamine levels [2] read?
Answer: elevated histamine levels were observed

Question: What about the histamine levels [3] of the same substance?
Answer: elevated histamine levels were observed

Question: What about the “stability of lyophilized composition” value ([4]; lyophilized from 1-50 mg/ml in normal saline, −20° C. or room temperature) of the same substance?
Answer: stable

Question: And the “stability (degradation or aggregation of the peptide) when stored frozen” value ([4]; normal saline, 10-30 mg/ml, stored frozen, two or more years)?
Answer: stable

Question: What about the “infarction size 24 hr post treatment relative to saline placebo” value [5] of the same substance?
Answer: significantly reduced

Question: And the “subjects with an elevated histamine level” value ([6]; 0.375 mg/kg dose group, 1 timepoint, 2.00 hours post dose)?
Answer: 1 subject

Question: What about the “subjects with histamine levels greater than 10 nmol/L” value ([6]; 10 minutes after start of administration) of the same substance?
Answer: 7 of the 8

Question: And the “subjects with histamine levels greater than 10 nmol/L” value ([6]; 10 minutes after start of administration, listed as NA 1)?
Answer: Seven of 8

Question: And the “subjects with histamine levels greater than 10 nmol/L” value ([6]; 15 minutes after start of administration)?
Answer: 3 subjects

Question: And the maximum histamine level ([6]; 10 minutes after start)?
Answer: 39.8 nmol/L

Question: What about the average histamine level ([6]; 10 minutes after start) of the same substance?
Answer: 24.3 nmol/L

Question: What about the maximum histamine level ([6]; 15 minutes after start) of the same substance?
Answer: 20.3 nmol/L

Question: And the average histamine level ([6]; 15 minutes after start)?
Answer: 15.3 nmol/L

Question: And the “AE dry mouth, incidence” value ([6]; 9/46 subjects receiving drug)?
Answer: 19.6%

Question: What about the “AE flushing, incidence” value ([6]; 10/46 subjects receiving drug) of the same substance?
Answer: 21.7%

Question: What about the “AE pruritis, incidence” value ([6]; 12/46 subjects receiving drug) of the same substance?
Answer: 26.1%

Question: And the “AE feeling hot, incidence” value ([6]; 13/46 subjects receiving drug)?
Answer: 28.3%

Question: What about the “active treatment subjects who experienced at least 1 AE” value ([6]; 34 of 46 active treatment subjects, all doses) of the same substance?
Answer: 73.9%

Question: What about the “time for abnormal histamine results to return to the normal range” value ([6]; after drug administration) of the same substance?
Answer: ≤ 24.00 h

Question: What about the “Serious Adverse Events (SAEs)” value ([6]; all dose groups) of the same substance?
Answer: No Serious Adverse Events (SAEs) were reported

Question: And the “AEs at doses ≧2.60 mg/kg (decreased blood pressure, paraesthesia, hypoaesthesia, erythema, rash, pruritus, dry mouth, nausea, feeling hot, flushing)” value ([6]; doses ≧2.60 mg/kg)?
Answer: several AEs were frequently reported

Question: What about the “abnormal levels of histamine” value ([6]; treatment groups other than 3.75 mg/kg) of the same substance?
Answer: no treatment group had significant abnormal levels of histamine

Question: What about the “reduction of number of infarctions in the cortex” value (embolic stroke; [9]) of the same substance?
Answer: even greater

Question: And the “reduction of volumes of infarctions in the cortex” value (embolic stroke; [9])?
Answer: even greater

Question: What about the “number of MRI-visible infarctions in the whole brain” value (embolic stroke; vs vehicle control) of the same substance?
Answer: significantly reduced

Question: What about the “volume of MRI-visible infarctions in the whole brain” value (embolic stroke; vs vehicle control) of the same substance?
Answer: significantly reduced

Question: What about the histamine levels [7] of the same substance?
Answer: elevated histamine levels were observed

Question: And the “decrease in blood pressure” value ([8]; infusion over 3 min)?
Answer: about 50%

Question: And the “period of recovery of blood pressure” value ([8]; infusion over 3 min)?
Answer: 90 min

Question: What about the “recovery of blood pressure” value ([8]; infusion over an hour (60 min)) of the same substance?
Answer: recovered over a period of hour

Question: What about the “reduction in blood pressure” value ([8]; infusion over an hour (60 min)) of the same substance?
Answer: only a slight reduction

Question: Which inhibiting cerebral ischemia (cerebral ischemia) does the source give for “vdseisslk-rrrqrrkkrgyin ([dV][dD][dS][dE][dI][dS][dS][dL][dK][dR][dR][dR][dQ][dR][dR][dK][dK][dR]G[dY][dI][dN]; also: retro-inverso) [retro-inverso analog of Tat-NR2B9c, retro-inverso analog of Tat-NR2B9c described in WO 2008/014917]” here?
Answer: effective
